Key:
[1] = target: T1, GST-fused Cα-subunit of mouse PKA (GST-PKAC) (mouse, UniProt P05132 1-351); assay: pull-down
[2] = target: T1, GST-fused Cα-subunit of mouse PKA …; assay: pull-down; remark: listed apart in the source

B1: His8-DCRD-Myc (domain or fragment)
chain: RQFHGSASSLVEAVLISEGLGQFAQDPKFIEVTTQELADACDLTIEEMENAADDILSGGARQS
Binder B1 has an IC50 [1] of 880 nM and a Kd [2] of under 1000 nM.
